Substrate: C[C@@H]1O[C@H](OP(=O)(O)OP(=O)(O)OC[C@H]2O[C@@H](n3cnc4c(=O)[nH]c(N)nc43)[C@H](O)[C@@H]2O)[C@@H](O)[C@H](O)[C@@H]1O
Test: GDP-Glo glycosyltransferase assay, nonlinear regression
Assay type: biochemical, Homo sapiens
Settings: saturating biantennary N-glycan acceptor 7; 1 h
Source text: GDP-Glo glycosyltransferase assay, nonlinear regression on FUT8

B1: FUT8 (Homo sapiens) (protein)
chain: MRPWTGSWRWIMLILFAWGTLLFYIGGHLVRDNDHPDHSSRELSKILAKLERLKQQNEDLRRMAESLRIPEGPIDQGPAIGRVRVLEEQLVKAKEQIENYKKQTRNGLGKDHEILRRRIENGAKELWFFLQSELKKLKNLEGNELQRHADEFLLDLGHHERSIMTDLYYLSQTDGAGDWREKEAKDLTELVQRRITYLQNPKDCSKAKKLVCNINKGCGYGCQLHHVVYCFMIAYGTQRTLILESQNWRYATGGWETVFRPVSETCTDRSGISTGHWSGEVKDKNVQVVELPIVDSLHPRPPYLPLAVPEDLADRLVRVHGDPAVWWVSQFVKYLIRPQPWLEKEIEEATKKLGFKHPVIGVHVRRTDKVGTEAAFHPIEEYMVHVEEHFQLLARRMQVDKKRVYLATDDPSLLKEAKTKYPNYEFISDNSISWSAGLHNRYTENSLRGVILDIHFLSQADFLVCTFSSQVCRVAYEIMQTLHPDASANFHSLDDIYYFGGQNAHNQIAIYAHQPRTADEIPMEPGDIIGVAGNHWDGYSKGVNRKLGRTGLYPSYKVREKIETVKYPTYPEAEK
notes: isolated enzyme; construct not described in main text
  Km: 33.8 ± 2.5 µM
